The results in this text go back to patent US20260193376A1 (Novo Nordisk, published 2026).

Assay [1] concerns the target FIX K301A with C-terminal His-tag (human, UniProt P00740 47-461). The assay can be described thus: SPR (Biacore T200), FIX variant captured via His-tag, 20 µM OA antibody. How it is done: (§1) SPR analyses were carried out on Biacore T200 instruments (Biacore AB, Uppsala, Sweden). For the experiments on the T200 instrument the following conditions were applied: measurements were conducted at a temperature of 25° C. Anti-His antibody at 25 μg/ml (R&D Systems, catalogue #MAB050) was immobilized on a CM5 sensor chip using standard amine coupling chemistry. […] at 25 nM were injected at a flow rate of 10 μl/min for 1 min and were captured via their His-tag by the immobilized anti-His antibody. […] The running buffer used was 20 mM Tris, 150 mM NaCl, 5 mM CaCl₂, 0.05% Tween-20, 10 mg/ml BSA, pH 7.4. This was also used for dilution of anti-FIX antibody and FIX samples. Regeneration of the chip was achieved using 10 mM Glycine pH 2.0. Binding data were analysed according to a 1:1 model using BiaEvaluation 4.1 supplied by the manufacturer (Biacore AB, Uppsala, Sweden).
(§2) where Rmax_FIXvar and Rmax_FIXwt represent capture level (RU) of FIX variant and wild-type FIX, respectively, and where R_{max_Ab,FIX_var} and R_{max_Ab,FIX_wt} represent Rmax (RU) of the 20 μM antibody to captured FIX variant and wild-type FIX, respectively.
Background: Surface plasmon resonance follows binding to a sensor surface in real time, without labels.

Assay [2] deals with FIX K341E with C-terminal His-tag (human, UniProt P00740 47-461). The assay is described as above. The procedure:
as §1, §2

Assay [3] has as its target FIX T340A with C-terminal His-tag (human, UniProt P00740 47-461). Described as above. The procedure: as §1, §2
Assay [4] has as its target FIX D332A with C-terminal His-tag (human, UniProt P00740 47-461). Described as above. How it is done: as §1, §2
In assay [5] the target is FIX L337A with C-terminal His-tag (human, UniProt P00740 47-461). Described as above. The procedure: as §1, §2
Assay [6] has as its target FIX K341A with C-terminal His-tag (human, UniProt P00740 47-461). Described as above. How it is done:
as §1, §2

For assay [7], the target named is FIX R333A with C-terminal His-tag (human, UniProt P00740 47-461). Described as above. How it is done: as §1, §2
In assay [8] the target is FIX T335A with C-terminal His-tag (human, UniProt P00740 47-461). The description is as above. How it is done:
as §1, §2

Assay [9] deals with FIX N346A with C-terminal His-tag (human, UniProt P00740 47-461). Described as above. How it is done: as §1, §2
The target of assay [10] is FIX T343A with C-terminal His-tag (human, UniProt P00740 47-461). The description is as above. How it is done: as §1, §2
Assay [11] addresses FIX T343I with C-terminal His-tag (human, UniProt P00740 47-461). The description is as above. How it is done: as §1, §2
In assay [12] the target is FIX D332S with C-terminal His-tag (human, UniProt P00740 47-461). The description is as above. The procedure:
as §1, §2

Assay [13] addresses FIX S339L with C-terminal His-tag (human, UniProt P00740 47-461). Described as above. The procedure:
as §1, §2

Assay [14] deals with FIX A334L with C-terminal His-tag (human, UniProt P00740 47-461). The description is as above. The procedure:
as §1, §2

Assay [15] concerns the target FIX R338A with C-terminal His-tag (human, UniProt P00740 47-461). Described as above. How it is done: as §1, §2
Assay [16] concerns the target FIX N346Q with C-terminal His-tag (human, UniProt P00740 47-461). The assay is described as above. The procedure:
as §1, §2

Assay [17] concerns the target T1, wild-type FIX with C-terminal His-tag (human, UniProt P00740 47-461).
T1 construct: also called WT
The assay can be described thus: SPR (Biacore T200), wild-type FIX captured via His-tag, 20 µM OA antibody (reference). How it is done: as §1, §2

Assay [18] deals with human plasma-derived Factor IXa (human, UniProt P00740 47-191; P00740 227-461). Nature of the assay: cell-based or functional assay.
Chain of human plasma-derived Factor IXa (P00740 47-191, chain 1 of 2): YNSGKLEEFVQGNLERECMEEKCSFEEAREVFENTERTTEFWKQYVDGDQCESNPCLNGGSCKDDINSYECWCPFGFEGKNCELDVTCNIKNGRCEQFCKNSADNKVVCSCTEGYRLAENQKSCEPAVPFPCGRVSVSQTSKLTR
Chain of human plasma-derived Factor IXa (P00740 227-461, chain 2 of 2): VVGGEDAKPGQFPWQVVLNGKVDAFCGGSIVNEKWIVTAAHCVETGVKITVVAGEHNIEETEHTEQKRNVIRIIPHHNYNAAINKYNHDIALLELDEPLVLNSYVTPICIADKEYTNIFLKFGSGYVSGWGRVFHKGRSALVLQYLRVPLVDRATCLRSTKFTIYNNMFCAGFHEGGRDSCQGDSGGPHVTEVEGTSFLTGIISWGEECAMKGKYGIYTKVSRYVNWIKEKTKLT

Chain of FIX R338A with C-terminal His-tag (P00740 other isoform, or with tags, fused parts or gaps R338A R338A limits assumed): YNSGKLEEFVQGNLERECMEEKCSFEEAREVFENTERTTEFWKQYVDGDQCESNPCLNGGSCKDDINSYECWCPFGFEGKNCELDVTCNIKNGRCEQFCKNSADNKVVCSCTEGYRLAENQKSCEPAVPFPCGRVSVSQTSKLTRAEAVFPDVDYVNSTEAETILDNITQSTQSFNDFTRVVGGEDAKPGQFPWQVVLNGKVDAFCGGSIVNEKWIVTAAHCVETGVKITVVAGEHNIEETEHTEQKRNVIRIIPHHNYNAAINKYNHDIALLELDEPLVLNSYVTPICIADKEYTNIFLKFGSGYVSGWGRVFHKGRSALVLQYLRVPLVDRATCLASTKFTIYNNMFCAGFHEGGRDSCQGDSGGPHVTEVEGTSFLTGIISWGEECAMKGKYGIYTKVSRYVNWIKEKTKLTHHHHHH
Chain of FIX T335A with C-terminal His-tag (P00740 other isoform, or with tags, fused parts or gaps T335A T335A limits assumed): as the sequence (P00740 other isoform, or with tags, fused parts or gaps R338A R338A limits assumed) above, with T335A, A338R counted along it
Chain of FIX K341E with C-terminal His-tag (P00740 other isoform, or with tags, fused parts or gaps K341E K341E limits assumed): as the sequence (P00740 other isoform, or with tags, fused parts or gaps R338A R338A limits assumed) above, with A338R, K341E counted along it
Chain of FIX D332S with C-terminal His-tag (P00740 other isoform, or with tags, fused parts or gaps D332S D332S limits assumed): as the sequence (P00740 other isoform, or with tags, fused parts or gaps R338A R338A limits assumed) above, with D332S, A338R counted along it
Chain of FIX A334L with C-terminal His-tag (P00740 other isoform, or with tags, fused parts or gaps A334L A334L limits assumed): as the sequence (P00740 other isoform, or with tags, fused parts or gaps R338A R338A limits assumed) above, with A334L, A338R counted along it
Chain of FIX R333A with C-terminal His-tag (P00740 other isoform, or with tags, fused parts or gaps R333A R333A limits assumed): as the sequence (P00740 other isoform, or with tags, fused parts or gaps R338A R338A limits assumed) above, with R333A, A338R counted along it
Chain of FIX S339L with C-terminal His-tag (P00740 other isoform, or with tags, fused parts or gaps S339L S339L limits assumed): as the sequence (P00740 other isoform, or with tags, fused parts or gaps R338A R338A limits assumed) above, with A338R, S339L counted along it
Chain of FIX L337A with C-terminal His-tag (P00740 other isoform, or with tags, fused parts or gaps L337A L337A limits assumed): as the sequence (P00740 other isoform, or with tags, fused parts or gaps R338A R338A limits assumed) above, with L337A, A338R counted along it
T1 sequence (P00740 other isoform, or with tags, fused parts or gaps limits assumed): as the sequence (P00740 other isoform, or with tags, fused parts or gaps R338A R338A limits assumed) above, with A338R counted along it
Chain of FIX T343A with C-terminal His-tag (P00740 other isoform, or with tags, fused parts or gaps T343A T343A limits assumed): as the sequence (P00740 other isoform, or with tags, fused parts or gaps R338A R338A limits assumed) above, with A338R, T343A counted along it
Chain of FIX K301A with C-terminal His-tag (P00740 other isoform, or with tags, fused parts or gaps K301A K301A limits assumed): as the sequence (P00740 other isoform, or with tags, fused parts or gaps R338A R338A limits assumed) above, with K301A, A338R counted along it
Chain of FIX N346A with C-terminal His-tag (P00740 other isoform, or with tags, fused parts or gaps N346A N346A limits assumed): as the sequence (P00740 other isoform, or with tags, fused parts or gaps R338A R338A limits assumed) above, with A338R, N346A counted along it
Chain of FIX D332A with C-terminal His-tag (P00740 other isoform, or with tags, fused parts or gaps D332A D332A limits assumed): as the sequence (P00740 other isoform, or with tags, fused parts or gaps R338A R338A limits assumed) above, with D332A, A338R counted along it
Chain of FIX T340A with C-terminal His-tag (P00740 other isoform, or with tags, fused parts or gaps T340A T340A limits assumed): as the sequence (P00740 other isoform, or with tags, fused parts or gaps R338A R338A limits assumed) above, with A338R, T340A counted along it
Chain of FIX K341A with C-terminal His-tag (P00740 other isoform, or with tags, fused parts or gaps K341A K341A limits assumed): as the sequence (P00740 other isoform, or with tags, fused parts or gaps R338A R338A limits assumed) above, with A338R, K341A counted along it
Chain of FIX N346Q with C-terminal His-tag (P00740 other isoform, or with tags, fused parts or gaps N346Q N346Q limits assumed): as the sequence (P00740 other isoform, or with tags, fused parts or gaps R338A R338A limits assumed) above, with A338R, N346Q counted along it
Chain of FIX T343I with C-terminal His-tag (P00740 other isoform, or with tags, fused parts or gaps T343I T343I limits assumed): as the sequence (P00740 other isoform, or with tags, fused parts or gaps R338A R338A limits assumed) above, with A338R, T343I counted along it

B1: one-armed (OA) mAb01-9994 (antibody, V domains shown)
VH: EVQLVESGGGLVQPGRSLRLSCAASGFTFHDYAMHWVRQVPGKGLEWVSGISWKGDIGGYVDSVKGRFTISRDNEKNSLYLQMNSLRAEDTALYYCVKSYGSGSFYNAFDSWGQGTLVTVSS
VL: DIQMTQSPSTLSASVGDRVTITCRASQSISSWLAWYQQKPGKAPKFLIYKASRLDRGTPSRFSGSGSGTEFSLTISSLQPDDFATYYCLEYSSYIRTFGQGTKVEIK
notes: also called OA variant of mAb01-9994
Take B1: the “Binding (%) relative to wild-type FIX” value in assay [1] stood at 89%; in [2], 3%; in assay [3], 16%; in assay [4], 41%; in assay [5] it was 38%; in [6] it was 18%. For the same molecule, the “Binding (%) relative to wild-type FIX” value turned out to be 55% in assay [7]; 43% in [8]; 92% in assay [9]; 58% in assay [10]; 62% in assay [11]; 41% in [12]. For the same molecule, the “Binding (%) relative to wild-type FIX” value in [13] amounted to 46%; in [14] it was 38%; in [15], 0%; in assay [16], 101%; in assay [17], 100%. In addition, the “Stimulation Index, FXa generation assay, 3600 nM OA antibody” value in assay [18] was determined as 10600 fold.

B2: one-armed (OA) mAb01-9985 (antibody, V domains shown)
VH: EVQLVESGGGLVQPGRSLRLSCAASGFTFHDYAMHWVRQVPGKGLEWVSGISWRGDIGGYVKSVKGRFTISRDNAKNSLYLQMNSLRAEDTALYYCVKSYGSGSFYNAFDSWGQGTLVTVSS
VL: DIQMTQSPSTLSASVGDRVTITCRASQSISSWLAWYQQKPGKAPKFLIYKASKLERGTPSRFSGSGSGTEFSLTISSLQPDDFATYYCLEYSSYIRTFGQGTKVEIK
notes: also called OA variant of mAb01-9985
For B2, the “Binding (%) relative to wild-type FIX” value in assay [1] was found to be 94%; in [2], 10%; in assay [3] it was 29%; in [4], 59%; in assay [5], 61%; in [6], 30%. Besides, the “Binding (%) relative to wild-type FIX” value came out at 73% in assay [7]; 64% in assay [8]; 100% in assay [9]; 86% in [10]; 84% in assay [11]; 59% in assay [12]. For the same molecule, the “Binding (%) relative to wild-type FIX” value in assay [13] amounted to 66%; in [14] it was 60%; in assay [15] it was 8%; in assay [16], 93%; in [17] it was 100%. Besides, in assay [18], the “Stimulation Index, FXa generation assay, 2400 nM OA antibody” value came out at 13700 fold.
